# Experimental data taken from the supplement of paper PMC7877785.
# ± gives the uncertainty stated by the source.
# Test: self-splicing fitness, log relative to wild type (ln ratio); higher = more splicing; Tetrahymena group I intron in knt gene, E. coli kanamycin selection, DiMSum; sequences stand for … in CUCUCU…GGAGGGAAAAGUUAUCAGGCAUGCACCUGGUAGCUAGUCUUUAAACCAAUAGAUUGCAUCGGUUUAAAAGGCAAGACCGUCAAAUUGCGGGAAAGGGGUCAACAGCCGUUCAGUACCAAGUCUCAGGGGAAACUUUGAGAUGGCCUUGCAAAGGGUAUGGUAAUAAGCUGACGGACAUGGUCCUAACCACGCAGCCAAGUCCUAAGUCAACAGAUCUUCUGUUGAUAUGGAUGCAGUUCACAGACUAAAUGUCGGUCGGGGAAGAUGUAUUCUUCUCAUAAGAUAUAGUCGGACCUCUCCUUAAUGGGAGCUAGCGGAUGAAGUGAUGCAACACUGGAGCCGCUGGGAACUAAUUUGUAUGCGAAAGUAUAUUGAUUAGUUUUGGAGUACUCGUGGUCG
# How it was run: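 A randomised library covering all eight P1ex-region intron nucleotides was built with the intron in the knt kanamycin-resistance gene on pET-22b(+) and held in E. coli BL21(DE3). Cells were grown overnight at 37°C or 30°C on LB agar, with or without 25 μg/mL kanamycin, plus 100 μg/mL carbenicillin, 50 μM IPTG and 0.2% rhamnose, and pooled colonies were amplicon-sequenced on an Illumina HiSeq 2500. DiMSum fitness is the error-weighted combination of wild-type-normalised replicate fold changes, kanamycin versus none.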
Sequence,self-splicing fitness (ln) (30 °C),self-splicing fitness (ln) (37 °C)
UUAAAGCAAUAUUACGUGAG,-0.984 ± 0.063,-0.201 ± 0.1
UUAAAGCAAUAUUACGUGCC,-0.9 ± 0.11,-0.509 ± 0.16
UUACAGCAAUAUUACGAAAC,-2.85 ± 0.33,-2.49 ± 0.41
UUACAGCAAUAUUACGAACC,-1.61 ± 0.4,–
UUACAGCAAUAUUACGAAUA,-2.6 ± 0.3,-1.03 ± 0.2
UUACAGCAAUAUUACGACCG,-0.642 ± 0.091,-0.0873 ± 0.13
UUACAGCAAUAUUACGAGCC,-2.86 ± 0.44,-1.13 ± 0.31
UUACAGCAAUAUUACGAUGC,-3.18 ± 0.27,-2.95 ± 0.36
UUACAGCAAUAUUACGAUGU,-4.69 ± 0.39,-2.86 ± 0.23
UUACAGCAAUAUUACGCAGG,-1.79 ± 0.14,-1.44 ± 0.14
UUACAGCAAUAUUACGCAGU,-4.23 ± 0.31,-2.55 ± 0.28
UUACAGCAAUAUUACGCCAC,–,-2.7 ± 0.43
UUACAGCAAUAUUACGCCAG,-1.74 ± 0.15,-1.05 ± 0.21
UUACAGCAAUAUUACGCCCA,-1.62 ± 0.32,-0.254 ± 0.3
UUACAGCAAUAUUACGCCGG,-0.726 ± 0.094,-0.416 ± 0.13
UUACAGCAAUAUUACGCGGG,-2.33 ± 0.14,-0.688 ± 0.12
UUACAGCAAUAUUACGCUCC,-1.45 ± 0.24,-1.3 ± 0.24
UUACAGCAAUAUUACGCUCU,-1.01 ± 0.074,-0.47 ± 0.087
UUACAGCAAUAUUACGCUGU,-3.49 ± 0.27,-2.37 ± 0.34

Sequence,self-splicing fitness (ln) (30 °C),self-splicing fitness (ln) (37 °C)
UUACAGCAAUAUUACGCUUU,-3.28 ± 0.25,-2.08 ± 0.18
UUACAGCAAUAUUACGGAUG,-2.18 ± 0.1,-0.325 ± 0.1
UUACAGCAAUAUUACGGCGG,-0.579 ± 0.087,0.426 ± 0.13
UUACAGCAAUAUUACGGGUU,-3.73 ± 0.12,-2.34 ± 0.12
UUACAGCAAUAUUACGGUAA,-2.33 ± 0.2,-1.68 ± 0.17
UUACAGCAAUAUUACGGUCC,-1.95 ± 0.16,-1.03 ± 0.16
UUACAGCAAUAUUACGUAGU,-2.7 ± 0.15,-3.5 ± 0.33
UUACAGCAAUAUUACGUAUA,-1.59 ± 0.11,-0.688 ± 0.14
UUACAGCAAUAUUACGUCGU,-3.81 ± 0.16,-2.26 ± 0.14
UUACAGCAAUAUUACGUUAC,-3.56 ± 0.28,-3.03 ± 0.27
UUACAGCAAUAUUACGUUAG,-0.713 ± 0.086,0.208 ± 0.12
UUACAGCAAUAUUACGUUGA,-1.57 ± 0.1,-0.574 ± 0.1
UUACAGCAAUAUUACGUUUC,-3.05 ± 0.17,-2.53 ± 0.25
UUAGAGCAAUAUUACGAAAG,-2.9 ± 0.4,-0.494 ± 0.35
UUAGAGCAAUAUUACGAACA,-2.48 ± 0.19,-0.84 ± 0.19
UUAGAGCAAUAUUACGACGA,0.428 ± 0.12,0.651 ± 0.15
UUAGAGCAAUAUUACGAGGG,–,-2.64 ± 0.44
UUAGAGCAAUAUUACGAUCA,-1.52 ± 0.16,-0.808 ± 0.17
UUAGAGCAAUAUUACGAUCU,-2.45 ± 0.24,-3.11 ± 0.3
